Test results from the DeepSol protein solubility set.

assay: soluble on expression in E. coli; label from the status in PepcDB or PDB records

Row | Sequence | soluble on expression in E. coli
1 | MYRQGTNQSVCSDADEFTPEELQEFAQAFKLFDKDGNNTMNIKELGEAMRMLGLNPTEEELLNMVNEYDVDGNGKIDFGEFCKMMKEMNKETDQELIRLAFKVFDKDGNGYITAQEFKHFMTTMGERFSEEEVDEIIREVDKDGDEQIDLDEFVNMVAPIVSDGTKTDPFLEPTASTNPPTK | not soluble
2 | MYRRLASGLYQTSQRRIAQVQPKSVFVPETIVTTLPNGFRVATENTGGSTATIGVFIDAGSRYENEKNNGTAHFLEHMAFKGTPRRTRMGLELEVENIGAHLNAYTSRESTTYYAKCFTEKLDQSVDILSDILLNSSLATKDIEAERGVIIREMEEVAQNFQEVVFDILHADVFKGNPLSYTILGPIELIQTINKNDLQGYINTHYRSGRMVLAAAGGVNHDAIVKMAEKYFGELKHGDSSTEFVPATYSPCEVRGDIPDLPMLYGAMVVEGVSWTHEDNLALMVANTLMGEYDRMRGFGVNAPTRLAEKLSQDAGIEVFQSFNTCYKETGLVGTYFVAAPESIDNLIDSVLQQWVWLANNIDEAAVDRAKRSLHTNLLLMLDGSTPVCEDIGRQLLCYGRRIPTPELHARIESITVQQLRDVCRRVFLEGQVSAAVVGKTQYWPVNEEIHGRLIRMQ | not soluble
3 | MYSIIRPFLLHAVTSVHAGSGSEIGLVDLPIQREKHTGFPKIESSSLKGALRYHMTQALPDETNKLELIFGADKGQESVTQASAIALSDARVLLFPVKSLRGVFAWITCPHVLERWNQEMSVHQEMKGKGEGFQSLPVPGPNTVSADRLIVADGRIILEEYTFPVTVSPEAKQLAEQLSAIIGESSRLRVTDRLVILSDDDFTDFVKLSTEVNARIRISPETGTVDSGALWYEENVPPETFFYSFLYIGHVRGKGVDGLATAEEIERYLVDERKFPSVFQLGGNSTLGRGMMRTIWL | not soluble
4 | MYTLNWQPPYDWSWMLGFLAARAVSSVETVADSYYARSLAVGEYRGVVTAIPDIARHTLHINLSAGLEPVAAECLAKMSRLFDLQCNPQIVNGALGRLGAARPGLRLPGCVDAFEQGVRAILGQLVSVAMAAKLTARVAQLYGERLDDFPEYICFPTPQRLAAADPQALKALGMPLKRAEALIHLANAALEGTLPMTIPGDVEQAMKTLQTFPGIGRWTANYFALRGWQAKDVFLPDDYLIKQRFPGMTPAQIRRYAERWKPWRSYALLHIWYTEGWQPDEA | soluble
5 | MYVVKSANDGGNSLFLSSSDIVNQLSKTETGKKHLKTLTGNLYPFKTPASFDKKQGVRWGNILSVNTQMIRFRSDCIYKGIEENRNKVSKEMVLALDYLINVIKNASDIQEFSAQDDGLIIIDNVNGLHARTDYTDKNRHYIRARITV | not soluble
6 | NAVNWGMREYKIYPYELLLVTTRGRNRLPKDVDRTRLERHLSQEEFYQVFGMTISEFDRLALWKRNELKKQARLF | soluble
7 | NDAIPTIFIHGYRGTDRSLHGMIRRFDQKYNWGTESLTVNVSPDGSISTTGTYSKNEKNPLINIVFEDNRATLPQQSMWTKKIMSYLQKNYDIKKFNAIGHSMGGGAWVSYLASYEKNKSYPQVNKIVFLAVPFYPEEYVNGDQQVDIKNANNVHAKFAQKMAKVLPDNTEIMIIGGDLEDGSNSDGEVKLNSVLYGQKLFAHQKVITHVIKGPKATHSSMHESTVVDKYVGQFLWG | not soluble
8 | NELDVPEQVDKLIQQATSIERLCQHYIGWCPFW | soluble
9 | NGHYMDQFTYAERATDWRGNNNIANSIFSQMQLEDHPIPSWVVMSPGTGGTSATIGRFIRYQKYDTKLCVVDPENSVFYDAFQSGNNELKGNTGSKIEGIGRPRVEPSFIAGVVDEMRKIPDAASIATAHWVSQLIGRKVGASTGTNLYGVLQLACEMKQRGETGSIVTLLCDSGERYLDTYYDLAWVKENIGDIQPYLTQLEVIQAKGCVEPACCGPITA | not soluble
10 | NGKLFLVGTPIGNLKDITLRALETLQNCDVIAAEDTRQSLKLLNHFDIKKPLISYHKFNENNRSSELMDMVREGKKVALVTDAGMPGISDPGSVIVEKFIENNLEFEVIPG | soluble
11 | NGNPIPMGYSQAVENNVQITNFALFSAAAIGVELCLFDEQNQETRLPMVRTENVWHLAVTGVKTGTEYAFRIHGEFANPQKLILDPYAKAVNGKPDLSSEESRSWFLLSDNRDNAHLAPRAVVIS | not soluble
12 | NIDLDVQNMAQNALKFGYDEIVKRDKDANLSTLNGAMVVVNHQSGDVLALVGGVDYEKSNYNRATQSMRQPGSSFKPFVYQVAINLGYSPMSEIADISRIFEGGAGNNEDWKPKNEGGKFLGLITLKEALTRSRNLATINLALDMGLDVLYSKLMEFGFKDIPPNLSIVLGSFGISPLEYSKFYTMFGNYGTIKDPQIIRQVQDKTGKTIMEFNSNERKVSDEAQSFLVLDMMRNVVEKGTGRNARVKDIEIAGKTGTTNKSVDAWFCGLTPEIEAIIWYGNDNNKPMRYTEGGARTAAPVFREFLTQYIEKFPDTTR | not soluble
13 | NIQGRTARQTDYLFQIKKHDITFGIGPAGTGKTYLAVACAVDALERELVSRVILVRPAVEAGERLGFLPGDMVQKVDPYLRPLYDALYDLMGFEKVSKHFERGIIEIAPLAFMRGRTLNQSFIILDEAQNTTAEQMKMFLTRIGFGSKAVITGDITQIDLPKHQKSGLVEAERVLKNVNGIAFTRFRTEDVVRHPLVQRIVDAYEKYAPDK | not soluble
14 | NKYNKIANELIKIIGEDNIISITHCATRLRVMVKDREIINDKKVEKVDEVKGVFFTSGQYQIILGTGIVNKVYAEVEKMGLKTLSKKEQDELVKNNE | soluble
15 | NLEGKGCSVLDQAGLAQKFGPVVSHIRIAARQEDLFAVRIAAGEAHLLLGCDLLVAAGPDAIAKLDSKISHAVINSQQTPTAEFTRNPDAVFPAEAMKQTIIDAVGADKTHFVEATSLATRLMGDSIASNLFMLGYAFQLGLIPLTSAAIEKAIELNGVAVNLNQQAFLWGRRTAHDPAAVEAFVNPQP | not soluble
16 | NLSASNRALPVLTLFTKAPCPLCDEAKEVLQPYKDRFILQEVDITLPENSTWYERYKFDIPVFHLNGQFLMMHRVNTSKLEKQLRKL | soluble
17 | NLYHTPIFSVDREYEWLEKRHDKMLFAFDIPIHLTRRVLLVAGEAHTGGTMEAFTRYLRSIGVGEIKTCVFYKQSICTQHIDFWGMEGENTILMPWQNAQSIRDSLSKAQANQLKKIQRQRDC | not soluble

Row | Sequence | soluble on expression in E. coli
18 | NPDGLSQEQLEHRERSLQTLRDIQRMLFPDEKEFTGAQSGGPQQNP | soluble
19 | NSESKSTPKRLHVSNIPFRFRDPDLRQMFGQFGKILDVEIIFNERGSKGFGFVTFENSADADRAREKLHGTVVEGRKIEVNNATARVMTN | soluble
20 | NSFFKTGWKRFYLKWYGQDHPSAQALCPYTTELLKQFPNIKAAMFTALPPGSRLVRHRDPFAGSVRYHLGLITPNDDRCYIDVDGQQYSWRDGEAVIFDETYLHYAENTTDQNRIILFCDVERPMWFWPARVVNRIVSRVLVGAANSPN | not soluble
21 | NTKPENDLERAKRKNERAKARCVGITFETRPDYAREEHIREMLRFGGTKVELGVQSLYDDVLERIKRGHGVKEVAEATRLLRDSAFKVGYHIMPGLPGSSFERDLRMFRELFENDSFKPDYLKIYPTLVVEGTELYEMWKRGEYEPYTTEEVVELIVMAKRRFPE | not soluble
22 | NTRGMALFADGGLIATKPYSASGSYINKMSDYCASCAYQVKLKSGEKACPLNSLYWRFMLKHRDRLANNPRIGMLYKTWDKMTSDSQQAILSTADAYLSQIESL | not soluble
23 | NVVETKALFVSTNDLARRLQKLNNEQKIQSNRLKTTIENIPSAILMIDRNGKIVVANKAYYEQFNISHNIEQVGYHGYVNTEIEQLILESFKVEKPIYEQLEVAINQVHAKYFDISCVPILTRSQKSLQGILVVMHD | not soluble
24 | NYRSRAAYKLIELDNKYLFLKKNKIILDIGCYPGSWCQVILERTKNYKNKIIGIDKKIMDPIPNVYFIQGEIGKDNMNNIKNINYIDNMNNNSVDYKLKEILQDKKIDIILSDAAVPCIGNKIDDHLNSCELTLSITHFMEQYINIGGTYIVKMYLGSQTNNLKTYLKGMFQLVHTTKPKASRNESREIYLVCKNFLGRKK | soluble
25 | PAQDYRCQLSRNYGKGSGSFTNYYYDKATSSCKTFRYRGSGGNGNRFKTLEDCEATCVTAE | soluble
26 | PDLAQKAANLTQEELAGLLYDSLYTKILPLSDDIIVYPAHGAGSACGKNMMQETVDSLGNQKRVNYALNQPGKEAFIASVIEGLLPPPAYFGGNVAMNKMGYDSIDNVMERGLSALSATDFEAIAKTSDALVLDTRAPGVFAQGFIPRSINIGLDGDFAPWVGTMIVDVKQPLLLVADPGREQEVITRLSRVGFDQVLGYLDGGFDTWNASGKEIDHVECITANEFAERFCPEESLVFDVRKESEYAAEHVEGAYSRPLAYINDWIQDIPRDRHFYLHCIGGYRSMIASSILLSRGYRNFTDIEGGFASIAQTGVPKTDYVCQSKVSKK | not soluble
27 | PDVDGMITLKVDNLTYRTSPDSLRRVFEKYGRVGDVYIPREPHTKAPRGFAFVRFHDRRDAQDAEAAMDGAELDGRELRVQVARYGRRDL | soluble
28 | PERESVRHKQPKSKEKKNAEKHIPHGIKCFVHAPEKYEWRWMGDEYVHALTPNVLEMVECLKANGIRLHTAGITVGMQKGKDLVPAPALALSTEMDDHSFFDMEFSRDEALSYLARQSVTTMPDLPLGFVLATFRRRPLGFLKNLGTRANNLYPQDWRIRNLETSEDCMEAKD | not soluble
29 | PFEGNRVDIYTGGYSKLQALLRELQKARLHIHMEYYIFEDDPVGRLVRDVLIEKAREGVEVRVIYDDVGCWHVPHRFFEEMRDAGIEVRSFLKVRFPLFTSKVNYRNHRKIVVIDGRIGFIGGMNLAERYMRGFSWGIWRDTHILLEGKAVHGLQTAFLLDWYFVDRTLITASRYFPKIEAYGNSLVQIVTSEP | not soluble
30 | PGPPQGPPQPVQQSKRLQQTQAQVEEVVDIMRVNVDKVLERDSKISELDDRADALQAGASQFEASAGKLKRKFWWKNCKM | soluble
31 | PGTESTFSNCYALNVEVVSLDSGDQAVLGGFVGQVSANFIAKHCYVSAKVTGGKNPGAFVGMTADESMNCKYDGCFYNNEQNP | not soluble
32 | PGYLNDIPRHGMFVKDLILLVNDTAAVAYDPMENECYLTALAEQIPRNHSSIVTQQNQVYVVGGLYVDEENKDQPLQSYFFQLDNVSSEWVGLPPLPSARCLFGLGEVDDKIYVVAGKDLQTEASLDSVLCYDPVAAKWSEVKNLPIKVYGHNVISHNGMIYCLGGKTDDKKCTNRVFIYNPKKGDWKDLAPMKTPRSMFGVAIHKGKIVIAGGVTEDGLSASVEAFDLKTNKWEVMTEFPQERSSISLVSLAGSLYAIGGFAMIQLESKEFAPTEVNDIWKYEDDKKEWAGMLKEIRYASGASCLATRLNLFKLSKL | soluble
33 | PHRPVQESVANAYDALGGYLEAKADFFDPDEAAWIGNRHIDLAMSNTGVITAFNQCRSALFYRLRGKHRHPRTAKMLRYYFAAQDIHERISSAHVDYQEMSEKFKNTDIIFRIHRLLEMQGQACRNTAQALRASKDYVYSKRLGRAIEGCRQSLRLLSDSNDSPDIRHLRRLLDNLGSVDQQFRQLQHNGLQAENDRMGDTRIAALETSSLKNTWQAIRPQLNLESGVFRH | not soluble
